Experimental data as given in patent US6548282B2, “Phytase and gene encoding said phytase” (priority 1996, dated 2003).

What was measured:
[1] = tested on: wheat bran-derived phytase; conditions: Agr. Biol. Chem., 26, 794-803 (1962); read-out: Michaelis constant (Km); cited from earlier work
[2] = tested on: rice bran-derived phytase; conditions: Agr. Biol. Chem., 53, 1475-1483; read-out: Michaelis constant (Km); cited from earlier work
[3] = tested on: maize (Zea mays)-derived phytase; conditions: read-out: Michaelis constant (Km); cited from earlier work
[4] = tested on: Aspergillus ficcum-derived phytase; conditions: WO 91/05053; read-out: Michaelis constant (Km); cited from earlier work
[5] = tested on: Aspergillus oryzae-derived phytase; conditions: read-out: Michaelis constant (Km); cited from earlier work
[6] = tested on: Bacillus subtilis-derived phytase; conditions: read-out: Michaelis constant (Km); cited from earlier work
[7] = tested on: Bacillus natto-derived phytase; conditions: read-out: Michaelis constant (Km); cited from earlier work
[8] = tested on: Escherichia coli-derived phytase; conditions: read-out: Michaelis constant (Km); cited from earlier work
[9] = substrate: O=P(O)(O)O[C@H]1[C@H](OP(=O)(O)O)[C@@H](OP(=O)(O)O)[C@H](OP(=O)(O)O)[C@@H](OP(=O)(O)O)[C@H]1OP(=O)(O)O; assay: Km of novel phytase from Aspergillus niger SK57 (standard assay, Lineweaver-Burk plot); type: biochemical; conditions: other: sodium phytate 0.00625 to 1.25 mM, pH 5.5, 37° C.
Experimental: (§1) 0.5 ml of 0.2 M acetate buffer, pH 5.5 (sodium acetate) containing 2.5 mM sodium phytate (Sigma) is maintained at 37° C. for 5 minutes, and 0.5 ml of an enzyme solution is added to initiate the reaction. After maintained at 37° C. for 10 minutes, 2 ml of a stop solution of enzyme reaction (i.e., mixture of 1:1:2 10 mM ammonium molybdate, 5 N sulfuric acid and acetone) is added to stop the reaction, and 0.1 ml of 1 M citric acid is further added and mixed. The absorbance of this solution is determined at 380 nm on a spectrophotometer (Hitachi U-2000). One unit of phytase activity is defined as the amount of enzyme allowing to release 1 μmol inorganic phosphorus for 1 minute at pH 5.5 at 37° C.
(§2) The Km value of the novel phytase can be determined by the Lineweaver-Burk plot in which the activity of the novel phytase, as determined by the standard assay, is plotted at varying concentrations of the substrate.
(§3) (1) Km value: The activity was determined according to the standard assay where the substrate concentration was varied in the range of 0.00625 to 1.25 mM. The results were graphted out in Lineweave-Burk plot so that Km values were determined.

[10] = Specific activity of purified phytase, standard assay; type: biochemical; conditions: after purification; pH 5.5, 37° C.
Experimental: as §1
Ten g of the crude phytase powder obtained in Example 6-2 was dissolved in 50 ml of acetate buffer A [50 mM acetic acid/50 mM sodium acetate (pH 5.5)] and then desalted through an Ultrafilter (cut off molecular weight 10,000; Sartrius). The resulting enzyme solution was applied to a DIAION HPA-75 (Mitsubishi Corporation) column (5.6 cm×30 cm) previously equilibrated with acetate buffer A. After washed with acetate buffer A, novel phytase was eluted with acetate buffer B [50 mM acetic acid/50 mM sodium acetate (pH 4.8)] containing 0.3 M NaCl. […]

[11] = Substrate specificity, standard assay; type: biochemical
Experimental: as §1
(7) Substrate specificity: The activity was determined by the standard assay method wherein the concentration of substrates was adjusted at 1 mM and 10 mM.

[12] = substrate: O=P(O)(O)O[C@H]1[C@H](OP(=O)(O)O)[C@@H](OP(=O)(O)O)[C@H](OP(=O)(O)O)[C@@H](OP(=O)(O)O)[C@H]1OP(=O)(O)O; assay: Km of novel phytase from transformant Aspergillus niger MH-PA1 (standard assay, Lineweaver-Burk plot); type: biochemical; conditions: other: sodium phytate 0.00625 to 1.25 mM, pH 5.5, 37° C.
Experimental: as §1, §2, §3

[13] = substrate: O=P(O)(O)O[C@H]1[C@H](OP(=O)(O)O)[C@@H](OP(=O)(O)O)[C@H](OP(=O)(O)O)[C@@H](OP(=O)(O)O)[C@H]1OP(=O)(O)O; assay: Km of novel phytase from transformant Aspergillus nidulans M-PA1 (standard assay, Lineweaver-Burk plot); type: biochemical; conditions: other: sodium phytate 0.00625 to 1.25 mM, pH 5.5, 37° C.
Experimental: as §1, §2, §3

[14] = substrate: O=P(O)(O)O[C@H]1[C@H](OP(=O)(O)O)[C@@H](OP(=O)(O)O)[C@H](OP(=O)(O)O)[C@@H](OP(=O)(O)O)[C@H]1OP(=O)(O)O; assay: Km of novel phytase from transformant Aspergillus oryzae MO-PG3 (standard assay, Lineweaver-Burk plot); type: biochemical; conditions: other: sodium phytate 0.00625 to 1.25 mM, pH 5.5, 37° C.
Experimental: as §1, §2, §3

Molecule: O=P(O)(O)O[C@H]1[C@H](OP(=O)(O)O)[C@@H](OP(=O)(O)O)[C@H](OP(=O)(O)O)[C@@H](OP(=O)(O)O)[C@H]1OP(=O)(O)O [phytic acid]
- Km [1]: 570 µM
- Km [2]: 170 µM
- Km [3]: 117 µM
- Km [4]: 250 µM
- Km [5]: 330 µM
- Km [6]: 150 µM
- Km [7]: 500 µM
- Km [8]: 130 µM

B1: novel phytase derived from Aspergillus niger SK57, SEQ ID NO:1 (Aspergillus niger CBS 513.88) (protein)
chain: SRNQSTCDTVDQGYQCFSETSHLWGQYAPFFSLANKSAISPDVPAGCHVTFAQVLSRHGARYPTDSKGKKYSALIEEIQQNATTFEGKYAFLKTYNYSLGADDLTPFGEQELVNSGVKFYQRYESLTRNIVPFIRSSGSSRVIASGNKFIEGFQSTKLKDPRAQPGQSSPKIDVVISEASTSNNTLDPGTCTVFEDSELADDIEANFTATFVPSIRQRLENDLSGVSLTDTEVTYLMDMCSFDTISTSTVDTKLSPFCDLFTHEEWINYDYLQSLNKYYGHGAGNPLGPTQGVGYANELIARLTHSPVHDDTSSNHTLDSNPATFPLNSTLYADFSHDNGIISILFALGLYNGTKPLSSTTAENITQTDGFSSAWTVPFASRMYVEMMQCQSEQEPLVRVLVNDRVVPLHGCPVDALGRCTRDSFVKGLSFARSGGDWGECFA
- Km [9]: 13 µM

B2: novel phytase from Aspergillus niger SK57: Phytase purified from wheat bran culture of Aspergillus niger SK57 (FERM BP-5473); amino acid sequence SEQ ID NO:1 (protein)
chain: B1 chain
- specific activity [10]: 158 U/mg
- Relative activity (100%) ([11]; substrate ATP 1 mM): 1.6%
- Relative activity (100%) ([11]; substrate ATP 10 mM): 1.2%
- Relative activity (100%) ([11]; substrate D-glucose-6-phosphate 1 mM): 0.45%
- Relative activity (100%) ([11]; substrate D-glucose-6-phosphate 10 mM): 4.2%
- Relative activity (100%) ([11]; substrate D-myo-inositol 1,4,5-tris-phosphate 1 mM): 0.71%
- Relative activity (100%) ([11]; substrate D-myo-inositol 1,4,5-tris-phosphate 10 mM): 5.8%
- Relative activity (100%) ([11]; substrate fructose-6-phosphate 1 mM): 0.15%
- Relative activity (100%) ([11]; substrate fructose-6-phosphate 10 mM): 0.93%
- Relative activity (100%) ([11]; substrate glycerophosphoric acid 1 mM): 0.11%
- Relative activity (100%) ([11]; substrate glycerophosphoric acid 10 mM): 0.96%
- Relative activity (100%) ([11]; substrate p-nitrophenyl phosphate 1 mM): 1.9%
- Relative activity (100%) ([11]; substrate p-nitrophenyl phosphate 10 mM): 10%
- Relative activity (100%) ([11]; substrate phytic acid 1 mM): 100%
- substrate specificity (in words) ([11]; substrates of Table 1 at 1 mM and 10 mM): acted with low specificity on the substrates shown in Table 1, but it had less activity on substrates other than phytic acid

B3: novel phytase (SK57 gene, pANPHY1) derived from Aspergillus niger MH-PA1 (Aspergillus niger CBS 513.88) (protein)
chain: B1 chain
notes: secreted, mature, purified
- Km [12]: 30 µM

B4: novel phytase (SK57 gene, pANPHY1) derived from Aspergillus nidulans M-PA1 (Aspergillus niger CBS 513.88) (protein)
chain: B1 chain
notes: secreted, mature, purified, glycosylated
- Km [13]: 20 µM

B5: novel phytase (SK57 gene, pANPHY1) derived from Aspergillus oryzae MO-PG3 (Aspergillus niger CBS 513.88) (protein)
chain: B1 chain
notes: as for B4
- Km [14]: 28 µM
